From the Human Domainome abundance scans (Beltran et al. 2025)
± gives the uncertainty stated by the source.

B1: Transcriptional regulator ERG, residues 117 to 197; numbered along this chain, P11308 (parent)
chain: NMTTNERRVIVPADPTLWSTDHVRQWLEWAVKEYGLPDVNILLFQNIDGKELCKMTKDDFQRLTPSYNADILLSHLHYLRE

Variants of: B1
Experiment: abundance fitness (aPCA) (normalised: wild type 0, dead -1); higher = more abundant; growth selection in yeast, the domain comes from the species named
Conditions: Homo sapiens

Going from NMTTNERRVIEPADPTLWSTDHVRQWLEWAVKEYGLPDVNILLFQNIDGKELCKMTKDDFQRLTPSYNADILLSHLHYLRE [V11E] to NMTTNERRVIHPADPTLWSTDHVRQWLEWAVKEYGLPDVNILLFQNIDGKELCKMTKDDFQRLTPSYNADILLSHLHYLRE [V11H], the abundance fitness rises from 0.056 ± 0.048 to 0.321 ± 0.089.

NMTTNERRVIAPADPTLWSTDHVRQWLEWAVKEYGLPDVNILLFQNIDGKELCKMTKDDFQRLTPSYNADILLSHLHYLRE [V11A] and NMTTNERRVICPADPTLWSTDHVRQWLEWAVKEYGLPDVNILLFQNIDGKELCKMTKDDFQRLTPSYNADILLSHLHYLRE [V11C] are within error of each other in abundance fitness: 0.102 ± 0.04 for the first, 0.106 ± 0.064 for the second.

NMTTNERRVIDPADPTLWSTDHVRQWLEWAVKEYGLPDVNILLFQNIDGKELCKMTKDDFQRLTPSYNADILLSHLHYLRE [V11D] and NMTTNERRVIGPADPTLWSTDHVRQWLEWAVKEYGLPDVNILLFQNIDGKELCKMTKDDFQRLTPSYNADILLSHLHYLRE [V11G] are within error of each other in abundance fitness: 0.013 ± 0.068 for the first, 0.05 ± 0.031 for the second.

NMTTNERRVIFPADPTLWSTDHVRQWLEWAVKEYGLPDVNILLFQNIDGKELCKMTKDDFQRLTPSYNADILLSHLHYLRE [V11F] and NMTTNERRVIIPADPTLWSTDHVRQWLEWAVKEYGLPDVNILLFQNIDGKELCKMTKDDFQRLTPSYNADILLSHLHYLRE [V11I] are within error of each other in abundance fitness: 0.078 ± 0.076 for the first, 0.102 ± 0.051 for the second.

Going from NMTTNERRQIVPADPTLWSTDHVRQWLEWAVKEYGLPDVNILLFQNIDGKELCKMTKDDFQRLTPSYNADILLSHLHYLRE [V9Q] to NMTTNERRCIVPADPTLWSTDHVRQWLEWAVKEYGLPDVNILLFQNIDGKELCKMTKDDFQRLTPSYNADILLSHLHYLRE [V9C], the abundance fitness falls from 0.243 ± 0.055 to 0.046 ± 0.063.

First: NMTTNERRLIVPADPTLWSTDHVRQWLEWAVKEYGLPDVNILLFQNIDGKELCKMTKDDFQRLTPSYNADILLSHLHYLRE [V9L]
Second: NMTTNERRYIVPADPTLWSTDHVRQWLEWAVKEYGLPDVNILLFQNIDGKELCKMTKDDFQRLTPSYNADILLSHLHYLRE [V9Y]
The abundance fitness of the first is higher: 0.096 ± 0.035 for the first, -0.062 ± 0.044 for the second.

NMTTNERRAIVPADPTLWSTDHVRQWLEWAVKEYGLPDVNILLFQNIDGKELCKMTKDDFQRLTPSYNADILLSHLHYLRE [V9A] and NMTTNERRMIVPADPTLWSTDHVRQWLEWAVKEYGLPDVNILLFQNIDGKELCKMTKDDFQRLTPSYNADILLSHLHYLRE [V9M] are within error of each other in abundance fitness: 0.12 ± 0.045 for the first, 0.132 ± 0.049 for the second.

NMTTNERRTIVPADPTLWSTDHVRQWLEWAVKEYGLPDVNILLFQNIDGKELCKMTKDDFQRLTPSYNADILLSHLHYLRE [V9T] and NMTTNERRWIVPADPTLWSTDHVRQWLEWAVKEYGLPDVNILLFQNIDGKELCKMTKDDFQRLTPSYNADILLSHLHYLRE [V9W] are within error of each other in abundance fitness: 0.054 ± 0.043 for the first, 0.038 ± 0.07 for the second.

NMTTNERRKIVPADPTLWSTDHVRQWLEWAVKEYGLPDVNILLFQNIDGKELCKMTKDDFQRLTPSYNADILLSHLHYLRE [V9K] and NMTTNERRRIVPADPTLWSTDHVRQWLEWAVKEYGLPDVNILLFQNIDGKELCKMTKDDFQRLTPSYNADILLSHLHYLRE [V9R] are within error of each other in abundance fitness: 0.16 ± 0.06 for the first, 0.113 ± 0.043 for the second.

Going from NMTTNERRSIVPADPTLWSTDHVRQWLEWAVKEYGLPDVNILLFQNIDGKELCKMTKDDFQRLTPSYNADILLSHLHYLRE [V9S] to NMTTNERRDIVPADPTLWSTDHVRQWLEWAVKEYGLPDVNILLFQNIDGKELCKMTKDDFQRLTPSYNADILLSHLHYLRE [V9D], the abundance fitness rises from 0.137 ± 0.036 to 0.269 ± 0.052.

Compared with NMTTNERRFIVPADPTLWSTDHVRQWLEWAVKEYGLPDVNILLFQNIDGKELCKMTKDDFQRLTPSYNADILLSHLHYLRE [V9F], NMTTNERRIIVPADPTLWSTDHVRQWLEWAVKEYGLPDVNILLFQNIDGKELCKMTKDDFQRLTPSYNADILLSHLHYLRE [V9I] is lower in abundance fitness: 0.075 ± 0.045 for the first, -0.034 ± 0.044 for the second.

Compared with NMTTNERREIVPADPTLWSTDHVRQWLEWAVKEYGLPDVNILLFQNIDGKELCKMTKDDFQRLTPSYNADILLSHLHYLRE [V9E], NMTTNERRHIVPADPTLWSTDHVRQWLEWAVKEYGLPDVNILLFQNIDGKELCKMTKDDFQRLTPSYNADILLSHLHYLRE [V9H] is lower in abundance fitness: 0.207 ± 0.075 for the first, 0.034 ± 0.048 for the second.

Going from NMTTNERRPIVPADPTLWSTDHVRQWLEWAVKEYGLPDVNILLFQNIDGKELCKMTKDDFQRLTPSYNADILLSHLHYLRE [V9P] to NMTTNERRNIVPADPTLWSTDHVRQWLEWAVKEYGLPDVNILLFQNIDGKELCKMTKDDFQRLTPSYNADILLSHLHYLRE [V9N], the abundance fitness falls from 0.292 ± 0.051 to 0.099 ± 0.044.

NMTTNEWRVIVPADPTLWSTDHVRQWLEWAVKEYGLPDVNILLFQNIDGKELCKMTKDDFQRLTPSYNADILLSHLHYLRE [R7W] and NMTTNEYRVIVPADPTLWSTDHVRQWLEWAVKEYGLPDVNILLFQNIDGKELCKMTKDDFQRLTPSYNADILLSHLHYLRE [R7Y] are within error of each other in abundance fitness: -0.053 ± 0.045 for the first, -0.127 ± 0.076 for the second.

NMTTNETRVIVPADPTLWSTDHVRQWLEWAVKEYGLPDVNILLFQNIDGKELCKMTKDDFQRLTPSYNADILLSHLHYLRE [R7T] and NMTTNESRVIVPADPTLWSTDHVRQWLEWAVKEYGLPDVNILLFQNIDGKELCKMTKDDFQRLTPSYNADILLSHLHYLRE [R7S] are within error of each other in abundance fitness: 0.021 ± 0.048 for the first, -0.047 ± 0.045 for the second.

NMTTNEVRVIVPADPTLWSTDHVRQWLEWAVKEYGLPDVNILLFQNIDGKELCKMTKDDFQRLTPSYNADILLSHLHYLRE [R7V] and NMTTNERRVCVPADPTLWSTDHVRQWLEWAVKEYGLPDVNILLFQNIDGKELCKMTKDDFQRLTPSYNADILLSHLHYLRE [I10C] are within error of each other in abundance fitness: -0.045 ± 0.038 for the first, -0.026 ± 0.066 for the second.

Going from NMTTNERRVWVPADPTLWSTDHVRQWLEWAVKEYGLPDVNILLFQNIDGKELCKMTKDDFQRLTPSYNADILLSHLHYLRE [I10W] to NMTTNERRVPVPADPTLWSTDHVRQWLEWAVKEYGLPDVNILLFQNIDGKELCKMTKDDFQRLTPSYNADILLSHLHYLRE [I10P], the abundance fitness rises from -0.089 ± 0.049 to 0.214 ± 0.06.
